Measurements taken from the supplement of paper PMC10724198.
± gives the standard deviation of the averaged measurements.

tested on: Saccharomyces cerevisiae; assay: protein stability index of tFT-peptide fusion (C-terminal peptide) (PSI (0-1 scale)); higher = more stable (slower turnover); settings: genetic background: wild type; temperature: 30 C
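Also: PSI is a weighted mean of sequencing reads over stability bins, variants kept only with over 10 reads, mCherry proximal and sfGFP distal, peptide attached via GGGS linker.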

Question: How did the protein stability index turn out when GVLLWWGRRRGE was run?
Answer: The protein stability index was 0.7224 ± 0.0048.

Question: How did the protein stability index turn out when RKVVLLFGLGEG was run?
Answer: The protein stability index was 0.669 ± 0.026.

Question: GGSRPPPFRPPA was tested. Which protein stability index did it give?
Answer: Its protein stability index is 0.724 ± 0.014.

Question: With SPLPPPLCPPPL as the sequence, how does the protein stability index read?
Answer: The protein stability index was 0.608 ± 0.034.

Question: With HYDTHQTPQTSP as the sequence, how does the protein stability index read?
Answer: The protein stability index was 0.667 ± 0.023.

Question: How did the protein stability index turn out when QNERRLPVGSYA was run?
Answer: Its protein stability index is 0.696 ± 0.06.

Question: With DDCFCGRFWVVV as the sequence, how does the protein stability index read?
Answer: Its protein stability index is 0.6787 ± 0.0032.

Question: SSPLWDGLPRLT was tested. Which protein stability index did it give?
Answer: The protein stability index was 0.736 ± 0.028.

Question: With APPPRSPPPTPH as the sequence, how does the protein stability index read?
Answer: Its protein stability index is 0.696 ± 0.012.

Question: Which protein stability index does the source give for QIERSRIAYLST here?
Answer: The protein stability index was 0.6933 ± 0.0027.

Question: With WMSGETTHTGRP as the sequence, how does the protein stability index read?
Answer: The protein stability index was 0.742 ± 0.026.

Question: With RVIIWDRRFLAG as the sequence, how does the protein stability index read?
Answer: Its protein stability index is 0.6793 ± 0.0026.

Question: Which protein stability index does the source give for PPPPPTPSTRTS here?
Answer: Its protein stability index is 0.667 ± 0.015.

Question: For PPPPPSSPPASP, which protein stability index is on record?
Answer: The protein stability index was 0.653 ± 0.03.

Question: PHAERASPDGLS was tested. Which protein stability index did it give?
Answer: The protein stability index was 0.664 ± 0.063.

Question: With TFPRRCILNIQI as the sequence, how does the protein stability index read?
Answer: Its protein stability index is 0.635 ± 0.024.

Question: With CWSRLADSFVSL as the sequence, how does the protein stability index read?
Answer: The protein stability index was 0.683 ± 0.05.

Question: How did the protein stability index turn out when PGGLHHGCSTPA was run?
Answer: The protein stability index was 0.724 ± 0.0087.

Question: How did the protein stability index turn out when WLGSGESVGHAG was run?
Answer: Its protein stability index is 0.686 ± 0.067.

Question: VFRFGVCDDWCV was tested. Which protein stability index did it give?
Answer: The protein stability index was 0.765 ± 0.018.

Question: For IHQDGEQKETRK, which protein stability index is on record?
Answer: Its protein stability index is 0.6948 ± 0.0047.

Question: How did the protein stability index turn out when SDVKFGFCGVAS was run?
Answer: Its protein stability index is 0.655 ± 0.028.

Question: With PPPPPRPFLPPP as the sequence, how does the protein stability index read?
Answer: Its protein stability index is 0.654 ± 0.058.

Question: With GFVGTVHLKCIS as the sequence, how does the protein stability index read?
Answer: Its protein stability index is 0.642 ± 0.031.

Question: Which protein stability index does the source give for VLGDSASFWSCP here?
Answer: Its protein stability index is 0.765 ± 0.15.

Question: For CSEHFLIDTYPA, which protein stability index is on record?
Answer: The protein stability index was 0.679 ± 0.05.

Question: For TPCSRMRPSLLF, which protein stability index is on record?
Answer: The protein stability index was 0.709 ± 0.11.

Question: For LLALVLTYLLYG, which protein stability index is on record?
Answer: Its protein stability index is 0.564 ± 0.03.

Question: With RSFYDNVLRPFK as the sequence, how does the protein stability index read?
Answer: The protein stability index was 0.776 ± 0.035.

Question: For TRRFGSIINWVG, which protein stability index is on record?
Answer: Its protein stability index is 0.59 ± 0.065.

Question: With DMWSMFSFLYYV as the sequence, how does the protein stability index read?
Answer: Its protein stability index is 0.507 ± 0.012.

Question: GFCSVIVLSLLL was tested. Which protein stability index did it give?
Answer: The protein stability index was 0.487 ± 0.041.

Question: Which protein stability index does the source give for GGWPREVVGRGG here?
Answer: Its protein stability index is 0.671 ± 0.09.

Question: Which protein stability index does the source give for LIAACSFPRSSI here?
Answer: Its protein stability index is 0.716 ± 0.067.

Question: How did the protein stability index turn out when FGYCFYRFHLQR was run?
Answer: Its protein stability index is 0.666 ± 0.049.

Question: Which protein stability index does the source give for PLNQKPPDWPTQ here?
Answer: The protein stability index was 0.734 ± 0.015.

Question: For SPPRPPRPRYLF, which protein stability index is on record?
Answer: Its protein stability index is 0.6947 ± 0.0062.

Question: For PFSLIFSFFSEV, which protein stability index is on record?
Answer: Its protein stability index is 0.7487 ± 0.0047.

Question: How did the protein stability index turn out when TYLQYKQKMKKH was run?
Answer: The protein stability index was 0.686 ± 0.15.

Question: For EPAFMRRFMSNK, which protein stability index is on record?
Answer: The protein stability index was 0.657 ± 0.016.

Question: For GRGRFMPRDWYW, which protein stability index is on record?
Answer: Its protein stability index is 0.708 ± 0.028.

Question: With PLPMPHPRSRST as the sequence, how does the protein stability index read?
Answer: The protein stability index was 0.673 ± 0.014.

Question: With SPLPRLPPGPLP as the sequence, how does the protein stability index read?
Answer: Its protein stability index is 0.68 ± 0.03.

Question: With FFGGAGGTEGLG as the sequence, how does the protein stability index read?
Answer: Its protein stability index is 0.689 ± 0.048.

Question: LPPVPRAYFSDT was tested. Which protein stability index did it give?
Answer: The protein stability index was 0.714 ± 0.061.

Question: How did the protein stability index turn out when RARQYTTAMIQS was run?
Answer: Its protein stability index is 0.469 ± 0.088.

Question: With AKRRELKCRVNL as the sequence, how does the protein stability index read?
Answer: The protein stability index was 0.674 ± 0.0087.

Question: How did the protein stability index turn out when GLWIRAEISLVS was run?
Answer: The protein stability index was 0.575 ± 0.016.

Question: With PHPRPPLAPPLT as the sequence, how does the protein stability index read?
Answer: Its protein stability index is 0.688 ± 0.038.

Question: GVWSLVGRGGEG was tested. Which protein stability index did it give?
Answer: Its protein stability index is 0.621 ± 0.017.

Question: How did the protein stability index turn out when QNIGPKEESVLA was run?
Answer: The protein stability index was 0.682 ± 0.035.

Question: How did the protein stability index turn out when GSIVVVGVVEGG was run?
Answer: Its protein stability index is 0.729 ± 0.066.

Question: Which protein stability index does the source give for PWDPDTPIPPRP here?
Answer: Its protein stability index is 0.716 ± 0.012.

Question: PNPHGRPSIPAL was tested. Which protein stability index did it give?
Answer: The protein stability index was 0.65 ± 0.039.

Question: With TPVAPGLSPPPL as the sequence, how does the protein stability index read?
Answer: Its protein stability index is 0.659 ± 0.066.

Question: CVFSEMIVCDGG was tested. Which protein stability index did it give?
Answer: The protein stability index was 0.566 ± 0.049.

Question: Which protein stability index does the source give for PPAPSSLTASPF here?
Answer: Its protein stability index is 0.71 ± 0.08.

Question: PHSPPSLSPTPP was tested. Which protein stability index did it give?
Answer: Its protein stability index is 0.685 ± 0.06.

Question: Which protein stability index does the source give for DSSEGRVRIRIR here?
Answer: Its protein stability index is 0.714 ± 0.063.

Question: For MSKGKKKGVKRK, which protein stability index is on record?
Answer: Its protein stability index is 0.703 ± 0.013.

Question: Which protein stability index does the source give for PRGPPPPAPPPT here?
Answer: Its protein stability index is 0.689 ± 0.0075.

Question: VLWVLDAFCFGG was tested. Which protein stability index did it give?
Answer: Its protein stability index is 0.643 ± 0.0084.

Question: With STGSAISSLSDR as the sequence, how does the protein stability index read?
Answer: The protein stability index was 0.68 ± 0.11.

Question: Which protein stability index does the source give for AVRLALAPQVGA here?
Answer: The protein stability index was 0.617 ± 0.018.

Question: For FHPVLPMSFRHV, which protein stability index is on record?
Answer: Its protein stability index is 0.666 ± 0.029.

Question: FDDSNSRTGPVQ was tested. Which protein stability index did it give?
Answer: The protein stability index was 0.692 ± 0.11.

Question: For FGLPGGVTVVTW, which protein stability index is on record?
Answer: The protein stability index was 0.757 ± 0.14.

Question: Which protein stability index does the source give for GDSSRVGPVGRA here?
Answer: Its protein stability index is 0.714.

Question: RGRGKVGLWEGS was tested. Which protein stability index did it give?
Answer: Its protein stability index is 0.669 ± 0.067.

Question: With VGGWGERGRGGS as the sequence, how does the protein stability index read?
Answer: The protein stability index was 0.696 ± 0.015.

Question: With GVRGGCDRGEVG as the sequence, how does the protein stability index read?
Answer: Its protein stability index is 0.604 ± 0.046.

Question: For GGLGGGRRGVGR, which protein stability index is on record?
Answer: The protein stability index was 0.664 ± 0.012.

Question: With FFPFSLFPLPPS as the sequence, how does the protein stability index read?
Answer: Its protein stability index is 0.744 ± 0.066.

Question: How did the protein stability index turn out when PPAICSFLSPPF was run?
Answer: The protein stability index was 0.655 ± 0.017.

Question: With KCVDSREKITMD as the sequence, how does the protein stability index read?
Answer: Its protein stability index is 0.672 ± 0.072.

Question: For SPFEASSPQVLT, which protein stability index is on record?
Answer: Its protein stability index is 0.644 ± 0.0094.

Question: How did the protein stability index turn out when PPAPPARFPSPP was run?
Answer: Its protein stability index is 0.711 ± 0.068.

Question: Which protein stability index does the source give for QPTRADLEAPPR here?
Answer: The protein stability index was 0.6858 ± 0.0065.

Question: GLPSSYLSALFR was tested. Which protein stability index did it give?
Answer: The protein stability index was 0.708 ± 0.029.

Question: For CGSVEVVVVRGS, which protein stability index is on record?
Answer: Its protein stability index is 0.587 ± 0.054.

Question: For VGVWDGCLLGLG, which protein stability index is on record?
Answer: Its protein stability index is 0.695 ± 0.028.

Question: Which protein stability index does the source give for PNPHDPQLPPPH here?
Answer: Its protein stability index is 0.709 ± 0.05.

Question: For RRPAPTRPPHTK, which protein stability index is on record?
Answer: Its protein stability index is 0.711 ± 0.013.

Question: Which protein stability index does the source give for PPRSHKPPQMQT here?
Answer: Its protein stability index is 0.663 ± 0.0082.

Question: With LFPHSLLPPPFF as the sequence, how does the protein stability index read?
Answer: The protein stability index was 0.73 ± 0.042.

Question: NQTVEQPLPTSL was tested. Which protein stability index did it give?
Answer: Its protein stability index is 0.708 ± 0.042.

Question: With CCLFLACANFFV as the sequence, how does the protein stability index read?
Answer: Its protein stability index is 0.551 ± 0.031.

Question: Which protein stability index does the source give for PPPPLYPQPPPT here?
Answer: Its protein stability index is 0.705 ± 0.025.

Question: How did the protein stability index turn out when RNRTNVETKTGS was run?
Answer: Its protein stability index is 0.6966 ± 0.0034.

Question: With GSAGSAVRNVVS as the sequence, how does the protein stability index read?
Answer: Its protein stability index is 0.647 ± 0.051.

Question: Which protein stability index does the source give for VLVVRERGAVDG here?
Answer: The protein stability index was 0.697 ± 0.1.

Question: Which protein stability index does the source give for SAFFSAWVLVLD here?
Answer: The protein stability index was 0.555 ± 0.024.

Question: How did the protein stability index turn out when ARRAVPGRGCEV was run?
Answer: Its protein stability index is 0.683 ± 0.066.

Question: How did the protein stability index turn out when LYVARVGQCVRD was run?
Answer: Its protein stability index is 0.686 ± 0.029.

Question: For SVYLKLSECRSV, which protein stability index is on record?
Answer: The protein stability index was 0.6877 ± 0.0018.

Question: How did the protein stability index turn out when ACCPPRLAPPPL was run?
Answer: The protein stability index was 0.675 ± 0.016.

Question: PPLLPPPPQLLL was tested. Which protein stability index did it give?
Answer: The protein stability index was 0.679 ± 0.028.

Question: With LRPCSSLPSTPP as the sequence, how does the protein stability index read?
Answer: The protein stability index was 0.718 ± 0.049.

Question: With RVFGSFLSGEQF as the sequence, how does the protein stability index read?
Answer: The protein stability index was 0.70035 ± 0.00058.

Question: DARLSPVRNRLF was tested. Which protein stability index did it give?
Answer: Its protein stability index is 0.652 ± 0.17.

Question: How did the protein stability index turn out when VLRFATIKRMYP was run?
Answer: Its protein stability index is 0.661 ± 0.018.
